Measurements taken from patent CN113880948A.
Each block holds one binder with its values, some of them ahead of it.

Biological target: CA724抗原 (CA724)
Assay: biolayer interferometry type kinetics, antibody captured on AMQ biosensor, antigen in solution (diluted 10-fold)

Kd: 18 nM
koff: 0.00109 s⁻¹
kon: 60700 M⁻¹ s⁻¹
B1: 抗CA724重组抗体 (recombinant anti-CA724 antibody made in Example 1, expressed in Expi293F cells) (antibody, mouse IgG1, kappa, V domains shown)
VH: QVQLQQSDAELVKPGASVKISCKASGYTFTDHAIHWAKQKPEQGLEWIGYISPGNDDIKYNEKFKGKATLTADKSSSTAYMQLNSLTSEDSAVYFCKRSYYGHWGQGTTLTVSS
VL: DIQMTQSPASLSVSVGETVTITCRASENIYSNLAWYQQKQGKSPQLLVYAATNLADGVPSRFSGSGSGTQYSLKINSLQSEDFGSYYCQHFWGTPYTFGGGTRLEIKG

Kd: 16.4 nM
koff: 0.000897 s⁻¹
kon: 54700 M⁻¹ s⁻¹
B2: 抗CA724单克隆抗体 (anti-CA724 monoclonal antibody purified from the hybridoma of Example 1) (antibody, V domains shown)
VH: B1 VH
VL: DIQMTQSPASLSVSVGETVTITCRASENIYSNLAWYQQKQGKSPQLLVYAATNLADGVPSRFSGSGSGTQYSLKINSLQSEDFGSYYCQHFWGTPYTFGGGTRLEIK
